Values quoted from earlier work in paper PMC5840170.
Like-named read-outs stand apart in the source and are kept apart here. Blank lines part the entries; values can stand above or below the substance they belong to.

Assays:
VPS4 MIT (Homo sapiens) [1] = target: VPS4 MIT (Homo sapiens) (UniProt Q9UN37)
VPS4 (Homo sapiens) = VPS4 (Homo sapiens) (UniProt Q9UN37)
VPS4 MIT (Homo sapiens) [2] = target: VPS4 MIT (Homo sapiens) (UniProt Q9UN37); remark: listed apart in the source
[3] = target: EAP20 (Vps25) winged helix (wH) (Homo sapiens) (UniProt Q9BRG1)
EAP20 (Vps25) winged helix (wH) (Homo sapiens), sequence (Q9BRG1 102-176): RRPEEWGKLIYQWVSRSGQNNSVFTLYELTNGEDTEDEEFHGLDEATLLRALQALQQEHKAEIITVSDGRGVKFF

EAP20 (Homo sapiens) = EAP20 (Homo sapiens) (UniProt Q9BRG1)
EAP20 (Homo sapiens), sequence (Q9BRG1 whole entry): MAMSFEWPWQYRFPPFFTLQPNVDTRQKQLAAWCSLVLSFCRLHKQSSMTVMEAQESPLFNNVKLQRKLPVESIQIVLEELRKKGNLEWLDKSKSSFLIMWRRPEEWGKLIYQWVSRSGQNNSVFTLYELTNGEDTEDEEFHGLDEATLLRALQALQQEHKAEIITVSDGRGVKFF

VPS4 MIT (Homo sapiens) [4] = target: VPS4 MIT (Homo sapiens) (UniProt Q9UN37); remark: listed apart in the source
[5] = target: CdvB wH domain (Sulfolobus acidocaldarius) (UniProt Q4J924)
CdvB wH domain (Sulfolobus acidocaldarius), sequence (Q4J924 213-261): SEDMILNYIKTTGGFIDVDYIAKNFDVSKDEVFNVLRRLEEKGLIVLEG

[6] = target: CdvB wH domain (Sulfolobus acidocaldarius) (UniProt Q4J924); remark: listed apart in the source
[7] = target: CdvC MIT domain (Sulfolobus acidocaldarius) (UniProt F2Z6D2)
CdvC MIT domain (Sulfolobus acidocaldarius), sequence (F2Z6D2 8-76): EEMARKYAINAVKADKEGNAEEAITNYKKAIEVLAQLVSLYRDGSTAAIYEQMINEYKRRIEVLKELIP

[8] = target: CdvC MIT (Sulfolobus acidocaldarius) (UniProt F2Z6D2)
CdvC MIT (Sulfolobus acidocaldarius), sequence (F2Z6D2 8-76): as above

[9] = target: CdvC MIT domain (Sulfolobus acidocaldarius) (UniProt F2Z6D2); remark: listed apart in the source
[10] = target: CdvC MIT (Sulfolobus acidocaldarius) (UniProt F2Z6D2); remark: listed apart in the source
[11] = target: CdvC MIT domain (Sulfolobus acidocaldarius) (UniProt F2Z6D2); remark: listed apart in the source
[12] = target: Vps4 (Saccharomyces cerevisiae) (UniProt P52917)
Vps4 (Saccharomyces cerevisiae), sequence (P52917 whole entry): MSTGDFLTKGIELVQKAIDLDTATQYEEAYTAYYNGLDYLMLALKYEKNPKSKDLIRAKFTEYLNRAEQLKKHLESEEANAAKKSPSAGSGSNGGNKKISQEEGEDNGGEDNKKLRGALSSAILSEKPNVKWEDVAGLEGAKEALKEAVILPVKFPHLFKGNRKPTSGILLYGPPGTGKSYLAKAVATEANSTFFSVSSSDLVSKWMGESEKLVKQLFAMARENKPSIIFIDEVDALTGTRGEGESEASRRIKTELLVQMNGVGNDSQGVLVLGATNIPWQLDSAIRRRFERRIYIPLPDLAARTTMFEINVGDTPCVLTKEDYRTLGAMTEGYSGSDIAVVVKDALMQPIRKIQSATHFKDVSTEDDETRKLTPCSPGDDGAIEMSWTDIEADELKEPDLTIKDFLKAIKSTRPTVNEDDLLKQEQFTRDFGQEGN

[13] = target: Vps4 MIT (Saccharomyces cerevisiae) (UniProt P52917)
Vps4 MIT (Saccharomyces cerevisiae), sequence (P52917 1-83): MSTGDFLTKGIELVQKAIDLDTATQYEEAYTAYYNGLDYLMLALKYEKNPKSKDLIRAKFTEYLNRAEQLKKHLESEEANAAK

[14] = target: ESCRT-III subunit (Vps2) α5 helix (Saccharomyces cerevisiae) (UniProt P36108)
ESCRT-III subunit (Vps2) α5 helix (Saccharomyces cerevisiae), sequence (P36108 165-184): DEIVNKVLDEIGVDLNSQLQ

VPS4 MIT (Homo sapiens), sequence (Q9UN37 1-83): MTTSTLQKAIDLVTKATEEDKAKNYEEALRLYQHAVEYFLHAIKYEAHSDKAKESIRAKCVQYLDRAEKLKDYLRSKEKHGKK
CdvB2 C-terminus, sequence (Q4J8Y4 200-219): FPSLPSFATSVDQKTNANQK
VPS4 (Homo sapiens), sequence (Q9UN37 whole entry): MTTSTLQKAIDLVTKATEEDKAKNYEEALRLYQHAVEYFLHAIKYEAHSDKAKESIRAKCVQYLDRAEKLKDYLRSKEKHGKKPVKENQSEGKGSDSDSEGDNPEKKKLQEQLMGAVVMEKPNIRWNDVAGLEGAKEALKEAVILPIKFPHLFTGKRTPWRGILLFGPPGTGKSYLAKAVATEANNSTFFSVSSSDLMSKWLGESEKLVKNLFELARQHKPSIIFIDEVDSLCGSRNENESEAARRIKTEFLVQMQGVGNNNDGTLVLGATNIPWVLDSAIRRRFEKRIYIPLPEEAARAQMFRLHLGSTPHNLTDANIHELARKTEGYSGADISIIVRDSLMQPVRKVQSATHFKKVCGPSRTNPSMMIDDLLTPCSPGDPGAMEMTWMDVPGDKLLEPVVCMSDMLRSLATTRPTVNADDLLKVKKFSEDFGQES
Vps4 central pore loops, sequence (P52917 whole entry, looked up): as the sequence (P52917 whole entry) above
Vps2 MIM1, sequence (P36108 211-232): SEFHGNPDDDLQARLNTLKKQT
CdvA E3B peptide, sequence (Q4J923 214-238): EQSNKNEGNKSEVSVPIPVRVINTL
Vps2, sequence (P36108 whole entry): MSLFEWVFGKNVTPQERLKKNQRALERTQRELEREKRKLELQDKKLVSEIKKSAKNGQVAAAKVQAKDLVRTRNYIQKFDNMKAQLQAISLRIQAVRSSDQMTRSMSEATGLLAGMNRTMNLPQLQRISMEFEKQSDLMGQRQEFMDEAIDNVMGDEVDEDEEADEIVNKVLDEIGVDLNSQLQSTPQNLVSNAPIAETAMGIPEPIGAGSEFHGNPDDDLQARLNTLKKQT
CdvB1 C-terminus, sequence (Q4JBG6 195-214): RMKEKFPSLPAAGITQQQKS
CHMP6, sequence (Q96FZ7 2-201): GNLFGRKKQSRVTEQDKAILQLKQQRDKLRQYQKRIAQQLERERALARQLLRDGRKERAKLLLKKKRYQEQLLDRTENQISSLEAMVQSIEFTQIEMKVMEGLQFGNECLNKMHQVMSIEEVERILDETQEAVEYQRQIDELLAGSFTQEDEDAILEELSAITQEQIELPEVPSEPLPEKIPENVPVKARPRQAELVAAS
CHMP6 (Vps20), sequence (Q96FZ7 2-201): as above
CdvA E3B, sequence (Q4J923 216-238): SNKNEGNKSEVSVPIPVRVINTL
CHMP4, sequence (Q9H444 2-224): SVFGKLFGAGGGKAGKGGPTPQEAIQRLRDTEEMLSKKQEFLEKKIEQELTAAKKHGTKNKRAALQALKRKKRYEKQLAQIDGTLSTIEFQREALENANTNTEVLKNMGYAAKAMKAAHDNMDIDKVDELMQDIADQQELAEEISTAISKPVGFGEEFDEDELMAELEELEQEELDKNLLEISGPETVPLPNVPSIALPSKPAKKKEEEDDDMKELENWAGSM
CdvB 177-261, sequence (Q4J924 177-261): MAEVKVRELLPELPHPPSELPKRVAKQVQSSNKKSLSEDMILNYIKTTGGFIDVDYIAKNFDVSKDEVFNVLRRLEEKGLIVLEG

Substance: CHMP6 (Vps20) (from UniProt Q96FZ7)
Kd [3]: 7 µM

Substance: CHMP6 MIM2 (from UniProt Q96FZ7)
Kd (VPS4 MIT (Homo sapiens) [4]): 30 µM

Substance: CdvA E3B (from UniProt Q4J923)
Kd [5]: 6 µM

Substance: CdvA E3B peptide (from UniProt Q4J923)
Kd [6]: 6 µM

Substance: CdvB1 C-terminus peptide (from UniProt Q4JBG6)
Kd [8]: > 100 µM

Substance: CdvB2 C-terminus (from UniProt Q4J8Y4)
Kd [9]: > 100 µM

Substance: Vps2 (from UniProt P36108)
Kd [12]: 30 µM

Substance: Vps4 central pore loops (from UniProt P52917)
Kd [14]: 2 µM

Continued, values first:

Kd (VPS4 MIT (Homo sapiens) [1]): 4.5 µM
Kd (VPS4 (Homo sapiens)): 4.5 µM
Substance: CHMP1A MIM1 (from UniProt Q9HD42)

Kd (VPS4 MIT (Homo sapiens) [2]): > 100 µM
Substance: CHMP4 (from UniProt Q9H444)

Kd (EAP20 (Homo sapiens)): 7 µM
Substance: CHMP6 (from UniProt Q96FZ7)

Kd [7]: > 100 µM
Substance: CdvB1 C-terminus (from UniProt Q4JBG6)

Kd [10]: > 100 µM
Substance: CdvB2 C-terminus peptide (from UniProt Q4J8Y4)

Kd [11]: 30 µM
Substance: CdvB 177-261 (from UniProt Q4J924)

Kd [13]: 30 µM
Substance: Vps2 MIM1 (from UniProt P36108)
